Measured values taken from patent publication US20240255507A1 (SYSMEX, published 2024).

B1: REGN10987 (antibody, V domains shown)
VH: QVQLVESGGGVVQPGRSLRLSCAASGFTFSNYAMYWVRQAPGKGLEWVAVISYDGSNKYYADSVKGRFTISRDNSKNTLYLQMNSLRTEDTAVYYCASGSDYGDYLLVYWGQGTLVTVSS
VL: QSALTQPASVSGSPGQSITISCTGTSSDVGGYNYVSWYQQHPGKAPKLMIYDVSKRPSGVSNRFSGSKSGNTASLTISGLQSEDEADYYCNSLTSISTWVFGGGTKLTVLR
B2: HKU9 wild-type RBD (other)
chain: SYCTPPYSVLQDPPQPVVWRRYMLYDCVFDFTVVVDSLPTHQLQCYGVSPRRLASMCYGSVTLDVMRINETHLNNLFNRVPDTFSLYNYALPDNFYGCLHAFYLNSTAPYAVANRFPIKPGGRQSNSAFIDTVINAAHYSPFSYVYGLAVITLKPAAGSKLVCPVAN
B3: CV30 (antibody, V domains shown)
VH: EVQLVESGGGLIQPGGSLRLSCAASGVIVSSNYMSWVRQAPGKGLEWVSVIYSGGSTYYADSVKGRFTISRDNSKNTLYLQMNSLRAEDTAVYYCARDLDVSGGMDVWGQGTTVTVSS
VL: not shown
B4: REGN10933 (antibody, V domains shown)
VH: QVQLVESGGGLVKPGGSLRLSCAASGFTFSDYYMSWIRQAPGKGLEWVSYITYSGSTIYYADSVKGRFTISRDNAKSSLYLQMNSLRAEDTAVYYCARDRGTTMVPFDYWGQGTLVTVSS
VL: DIQMTQSPSSLSASVGDRVTITCQASQDITNYLNWYQQKPGKAPKLLIYAASNLETGVPSRFSGSGSGTDFTFTISGLQPEDIATYYCQQYDNLPLTFGGGTKVEIKR
B5: CR3022 (antibody, V domains shown)
VH: QMQLVQSGTEVKKPGESLKISCKGSGYGFITYWIGWVRQMPGKGLEWMGIIYPGDSETRYSPSFQGQVTISADKSINTAYLQWSSLKASDTAIYYCAGGSGISTPMDVWGQGTTVTVSS
VL: DIQMTQSPSSLSASVGDRVTITCRASQSIYSALNWYQQKPGKAPKLLIYAASALQSGVPSRFSGSGSGTDFTLTISSLQPEDFATYYCQQTDIHPYTFGQGTKVEIKR
B6: BD23 (antibody, V domains shown)
VH: QVQLVQSGSELKKPGASVKVSCKASGYTFTSYAMNWVRQAPGQGLEWMGWINTNTGNPTYAQGFTGRFVFSLDTSVSTAYLQISSLKAEDTAVYYCARPQGGSSWYRDYYYGMDVWGQGTTVTVSS
VL: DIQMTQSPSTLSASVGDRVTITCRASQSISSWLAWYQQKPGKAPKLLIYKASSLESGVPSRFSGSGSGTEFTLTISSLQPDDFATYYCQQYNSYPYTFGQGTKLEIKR

Experiments:
HKU9 wild-type RBD [1] = target: B2; assay: ELISA, antigen coated
HKU9 wild-type RBD [2] = target: B2; assay: ELISA, antigen coated, binder 1 µg/mL, chemiluminescence
[3] = target: T1, ACE2-hFc (AC2-H 5257, Acrobiosystems) (human, UniProt Q9BYF1 18-740); assay: ELISA, antigen coated
T1 construct: also called ACE2-Fc

Hp wild-type RBD [4] = target: T2, Hp wild-type RBD (coronavirus Hp strain (Hibecovirus …)); assay: ELISA, antigen coated
Zaria wild-type RBD [5] = target: T3, Zaria wild-type RBD (coronavirus Zaria strain (Hibecovirus …)); assay: ELISA, antigen coated
GCCDC1 wild-type RBD [6] = target: T4, GCCDC1 wild-type RBD (coronavirus GCCDC1 strain (Nobecovirus …)); assay: ELISA, antigen coated
Hp wild-type RBD [7] = target: T2, Hp wild-type RBD; assay: ELISA, antigen coated, binder 1 µg/mL, chemiluminescence
Zaria wild-type RBD [8] = target: T3, Zaria wild-type RBD; assay: as above
GCCDC1 wild-type RBD [9] = target: T4, GCCDC1 wild-type RBD; assay: as above
SARS-CoV-2 wild-type RBD = SARS-CoV-2 wild-type RBD (SARS-CoV-2, UniProt P0DTC2 319-541); assay: as above

T1 sequence (Q9BYF1 18-740 limits assumed): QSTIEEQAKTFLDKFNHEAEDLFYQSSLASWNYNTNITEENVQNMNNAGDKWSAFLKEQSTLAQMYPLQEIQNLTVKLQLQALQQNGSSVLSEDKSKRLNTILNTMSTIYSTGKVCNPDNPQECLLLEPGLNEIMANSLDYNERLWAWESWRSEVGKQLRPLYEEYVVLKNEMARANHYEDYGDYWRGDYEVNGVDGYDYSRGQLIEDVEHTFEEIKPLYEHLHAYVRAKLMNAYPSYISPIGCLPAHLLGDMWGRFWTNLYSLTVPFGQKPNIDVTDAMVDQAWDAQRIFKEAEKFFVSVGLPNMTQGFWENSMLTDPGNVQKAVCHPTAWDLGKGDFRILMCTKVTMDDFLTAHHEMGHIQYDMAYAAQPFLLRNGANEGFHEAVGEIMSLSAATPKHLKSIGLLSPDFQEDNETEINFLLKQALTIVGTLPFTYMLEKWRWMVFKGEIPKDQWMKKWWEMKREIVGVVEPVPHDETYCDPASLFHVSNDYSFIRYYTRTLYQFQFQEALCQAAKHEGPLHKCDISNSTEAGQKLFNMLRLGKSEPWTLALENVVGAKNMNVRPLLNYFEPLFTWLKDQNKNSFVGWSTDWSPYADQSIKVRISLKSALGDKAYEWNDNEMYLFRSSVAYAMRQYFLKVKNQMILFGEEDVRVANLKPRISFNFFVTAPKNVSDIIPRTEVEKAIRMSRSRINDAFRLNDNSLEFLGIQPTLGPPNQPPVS

Which results are given for B1?
binding result (HKU9 wild-type RBD [1]): no binding (tested: 1 µg/mL); signal intensity (HKU9 wild-type RBD [2]): 1120

Does B2 bind [3]?
Result: no binding (tested: 1 µg/mL)

Does B3 bind (HKU9 wild-type RBD [1])?
Result: no binding (tested: 1 µg/mL)

Does B3 bind (Hp wild-type RBD [4])?
Result: no binding (tested: 1 µg/mL)

Does B3 bind (Zaria wild-type RBD [5])?
Result: no binding (tested: 1 µg/mL)

Does B3 bind (GCCDC1 wild-type RBD [6])?
Result: no binding (tested: 1 µg/mL)

And the signal intensity (HKU9 wild-type RBD [2])?
Its signal intensity is 583.

And the signal intensity (Hp wild-type RBD [7])?
The signal intensity was 150.

And the signal intensity (Zaria wild-type RBD [8])?
Its signal intensity is 100.

And the signal intensity (GCCDC1 wild-type RBD [9])?
Its signal intensity is 130.

What about the signal intensity (SARS-CoV-2 wild-type RBD) of the same binder?
The signal intensity was 921000.

Which results are given for B4?
binding result (HKU9 wild-type RBD [1]): no binding (tested: 1 µg/mL); signal intensity (HKU9 wild-type RBD [2]): 943

Does B5 bind (HKU9 wild-type RBD [1])?
Result: no binding (tested: 1 µg/mL)

Does B5 bind (Hp wild-type RBD [4])?
Result: no binding (tested: 1 µg/mL)

Does B5 bind (Zaria wild-type RBD [5])?
Result: no binding (tested: 1 µg/mL)

Does B5 bind (GCCDC1 wild-type RBD [6])?
Result: no binding (tested: 1 µg/mL)

What about the signal intensity (HKU9 wild-type RBD [2]) of the same binder?
The signal intensity was 433.

And the signal intensity (Hp wild-type RBD [7])?
The signal intensity was 100.

And the signal intensity (Zaria wild-type RBD [8])?
Its signal intensity is 330.

What about the signal intensity (GCCDC1 wild-type RBD [9]) of the same binder?
Its signal intensity is 100.

What about the signal intensity (SARS-CoV-2 wild-type RBD) of the same binder?
Its signal intensity is 1.07e+06.

Does B6 bind (HKU9 wild-type RBD [1])?
Result: no binding (tested: 1 µg/mL)

And the signal intensity (HKU9 wild-type RBD [2])?
The signal intensity was 803.
